Columns and labels:
[1] = system: PIN-XTEN-dCas9-2xNLS (Streptococcus pyogenes); test: cell_activity; conditions: no PAMmer, Northern dot blot; full-length Cas9 gave >95% loss in FIG. 8C
[2] = system: PIN-dCas9 deltaHNH del775-909 (Streptococcus pyogenes); test: cell_activity; conditions: COSM6, Northern blot

Question: “CUG repeat-targeting sgRNA ; CUG repeat RNA” was tested. Which activity (% RNA remaining) [1] did it give?
Answer: 35

Question: And the activity [2]?
Answer: > 95 % RNA loss
